Results: patent US20250059285A1 (ARGENX, published 2025)

Key:
human Gal10-His [1] = target: T1, human Gal10-His (human, UniProt Q05315 2-142, limits assumed); assay: SPR Biacore 3000, control on Gal10-His-coated CM5
T1 construct: also called hGal10-His; human Gal10-His tagged; not shown: His tag
T1 sequence: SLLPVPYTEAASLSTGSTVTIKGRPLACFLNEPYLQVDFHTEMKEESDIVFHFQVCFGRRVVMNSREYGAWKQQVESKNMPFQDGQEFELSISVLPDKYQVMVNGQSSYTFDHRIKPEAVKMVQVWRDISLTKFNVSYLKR
Description: The off-rate of the remaining 25 clones of the ELISA experiment was determined by SPR on a Biacore 3000 instrument. Periplasmic extracts were injected on a CM5 sensor chip coated with 2500 RU Gal10-His.

human Gal10-His [2] = target: T1, human Gal10-His; assay: BLI Octet RED96, Gal10-His captured on anti-Penta-His tips
human Gal10-His [3] = target: T1, human Gal10-His; assay: SPR Biacore 3000, purified hFab 20 nM on Gal10-His-coated CM5
human Gal10-His [4] = target: T1, human Gal10-His; assay: summary of periplasmic extract screening (BLI or SPR); control
human Gal10-His [5] = target: T1, human Gal10-His; assay: SPR Biacore 3000, hFab on human Gal10-His captured by anti-His CM5
Description: (§1) The binding properties of the selected clones to human and cynomolgus Gal10 was analyzed via a capture method established on a Biacore 3000 instrument.
(§2) For this purpose, two approaches were used. In the first, two concentrations of the selected clones were applied on cynomolgus (WGS isoform) Gal10-His capture on a CM5 chip coated with a monoclonal anti-His antibody. The second approach involved a serial dilution that was applied on human or cynomolgus (WGS isoform) Gal10-His in the same set-up.

[6] = target: T2, cynomolgus Gal10-His (WGS isoform) (cynomolgus); assay: SPR Biacore 3000, hFab on cynomolgus Gal10-His (WGS) captured by anti-His CM5
T2 construct: also called cynomolgus antigen
Description: as §1, §2

human Gal10-His [7] = target: T1, human Gal10-His; assay: SPR Biacore 3000, purified hFab (2 conc.) on Gal10-His captured by anti-His CM5
Description: The binding properties of the selected Fab clones to human Gal10 were analyzed via a capture method established on a Biacore 3000 instrument. Two concentrations of the selected Fab clones were tested on human Gal10-His immobilized on a CM5 chip coated with a monoclonal anti-His. As controls, the clone g7B07 and g7B07_N53A were injected at the beginning and the end of the run. Briefly, a CM5 chip was coated with a monoclonal anti-His antibody (4000 RU), then a fixed concentration of the human Gal10-His (25 μg/mL) was captured on the anti-His chip before receiving two concentrations of the clones in the human Fab backbone.

human Gal10-His [8] = target: T1, human Gal10-His; assay: SPR Biacore 3000, hFab on captured human Gal10-His; column head prints (M), the text gives nM
Description: as §1, §2

[9] = target: T2, cynomolgus Gal10-His (WGS isoform); assay: SPR Biacore 3000, hFab on captured cynomolgus Gal10-His (WGS); column head prints (M), the text gives nM
Description: as §1, §2

B1: g7B07 (human Fab) (Fab, V domains shown)
VH: EVQLLESGGGLVQPGGSLRLSCAASGFTFRSYDMSWVRQAPGKGLEWVSAIKNGGGITYYADSVKGRFTISRDNSKNTLYLQMNSLRAEDTAVYYCATTHGIGTLGFGSWGQGTLVTVSS
VL: SYELTQPLSVSVALGQTARITCDGNNIGSKSAQWYQQKPGQAPVLVIYADEYRPEGIPERFSGSNSGNTATLTISRAQAGDEADYYCQVWDGSAAVFGGGTQLTVL
notes: Human Fab backbone; their format is not certain; also called g7B07-hFab; germlined 7B07
Human Gal10-His [1]
  Fold off-rate compared to g7B07: 1 fold
  koff: 0.00218 s⁻¹
Human Gal10-His [2]
  kd fold difference to reference: 1 fold
  koff: 0.00754 s⁻¹
Human Gal10-His [3]
  Fold off-rate compared to g7B07: 1 fold
  koff: 0.0069 s⁻¹
Human Gal10-His [4]
  kd, fold compared to g7B07 (BLI or SPR): 1 fold
Human Gal10-His [5]
  Amplitude R0: 607 RU
  koff: 0.006 s⁻¹
  kon: 670000 M⁻¹ s⁻¹
[6]
  Amplitude R0: 64 RU
  koff: 0.13 s⁻¹
  kon: 1.9e+06 M⁻¹ s⁻¹
Human Gal10-His [7]
  Kd: 11.1 nM
  kd-fold drop vs g7B07: 1 fold
  koff: 0.0047 s⁻¹
  kon: 420000 M⁻¹ s⁻¹
Human Gal10-His [8]
  Kd: 9.08 nM
[9]
  Kd: 69.5 nM
